According to the supplement of paper PMC9112550, “Optimization of the antimicrobial peptide Bac7 by deep mutational scanning” (BMC Biology, 2022):

system: Escherichia coli TOP10; assay: shrunken log2 fold change of peptide-encoding DNA abundance (4.5 h post-induction vs induction); higher = less antimicrobial activity (less host growth inhibition); conditions: time post-induction: 4.5 h; library: site-saturation at positions 5, 18, 19, 20
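Note: peptides expressed intracellularly from a pBAD plasmid library in pooled LB shake-flask culture, induced with 0.3% L-arabinose, DNA abundance read by NGS, three biological replicates, DESeq2 with apeglm shrinkage.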

Sequence | shrunken log2 fold change
RRIRGRPPRLPRPRPRPQGDPRP | 0.824
RRIRGRPPRLPRPRPRPQHFPRP | 0.139
RRIRGRPPRLPRPRPRPQHWPRP | 0.165
RRIRGRPPRLPRPRPRPQIKPRP | 0.324
RRIRGRPPRLPRPRPRPQKMPRP | 0.331
RRIRGRPPRLPRPRPRPQLWPRP | 0.928
RRIRGRPPRLPRPRPRPQMGPRP | 0.339
RRIRGRPPRLPRPRPRPQMSPRP | 0.395
RRIRGRPPRLPRPRPRPQPGPRP | 0.606
RRIRGRPPRLPRPRPRPQQHPRP | 0.232
RRIRGRPPRLPRPRPRPQQIPRP | 0.457
RRIRGRPPRLPRPRPRPQRSPRP | 0.16
RRIRGRPPRLPRPRPRPQVVPRP | 0.0944
RRIRGRPPRLPRPRPRPQWDPRP | 0.534
RRIRGRPPRLPRPRPRPQWPPRP | 0.475
RRIRGRPPRLPRPRPRPQWTPRP | 0.319
RRIRGRPPRLPRPRPRPQYDPRP | 0.101
RRIRGRPPRLPRPRPRPQYFPRP | -0.141
RRIRGRPPRLPRPRPRPQYMPRP | -0.195
RRIRGRPPRLPRPRPRPQYNPRP | -0.0557
RRIRGRPPRLPRPRPRPQYRPRP | 0.0878
RRIRGRPPRLPRPRPRPRACPRP | 0.847
RRIRGRPPRLPRPRPRPRAMPRP | 0.787
RRIRGRPPRLPRPRPRPRAWPRP | 1.31
RRIRGRPPRLPRPRPRPRDDPRP | 0.536

Sequence | shrunken log2 fold change
RRIRGRPPRLPRPRPRPRDTPRP | 0.649
RRIRGRPPRLPRPRPRPRELPRP | 1.31
RRIRGRPPRLPRPRPRPRFWPRP | 0.943
RRIRGRPPRLPRPRPRPRGGPRP | 1.05
RRIRGRPPRLPRPRPRPRHEPRP | 0.604
RRIRGRPPRLPRPRPRPRHTPRP | 0.7
RRIRGRPPRLPRPRPRPRICPRP | 0.335
RRIRGRPPRLPRPRPRPRIMPRP | 0.506
RRIRGRPPRLPRPRPRPRLRPRP | 0.87
RRIRGRPPRLPRPRPRPRMFPRP | 0.837
RRIRGRPPRLPRPRPRPRMLPRP | 0.356
RRIRGRPPRLPRPRPRPRMWPRP | 0.223
RRIRGRPPRLPRPRPRPRNMPRP | 0.0712
RRIRGRPPRLPRPRPRPRQCPRP | 0.216
RRIRGRPPRLPRPRPRPRQPPRP | 0.283
RRIRGRPPRLPRPRPRPRRYPRP | 0.0823
RRIRGRPPRLPRPRPRPRSCPRP | 0.759
RRIRGRPPRLPRPRPRPRWDPRP | 0.696
RRIRGRPPRLPRPRPRPRYAPRP | 0.399
RRIRGRPPRLPRPRPRPRYHPRP | -0.0711
RRIRGRPPRLPRPRPRPRYYPRP | -0.0701
RRIRGRPPRLPRPRPRPSAGPRP | 1.09
RRIRGRPPRLPRPRPRPSAIPRP | 1.3
RRIRGRPPRLPRPRPRPSASPRP | 1.77
RRIRGRPPRLPRPRPRPSCMPRP | 0.336

Sequence | shrunken log2 fold change
RRIRGRPPRLPRPRPRPSDGPRP | -0.0367
RRIRGRPPRLPRPRPRPSDIPRP | 0.399
RRIRGRPPRLPRPRPRPSDTPRP | 0.116
RRIRGRPPRLPRPRPRPSEQPRP | 0.301
RRIRGRPPRLPRPRPRPSHHPRP | -0.286
RRIRGRPPRLPRPRPRPSIVPRP | 0.124
RRIRGRPPRLPRPRPRPSKQPRP | -0.0392
RRIRGRPPRLPRPRPRPSLEPRP | 0.827
RRIRGRPPRLPRPRPRPSMKPRP | 0.354
RRIRGRPPRLPRPRPRPSMVPRP | 0.512
RRIRGRPPRLPRPRPRPSNFPRP | 0.0228
RRIRGRPPRLPRPRPRPSNNPRP | 0.0994
RRIRGRPPRLPRPRPRPSPQPRP | 0.826
RRIRGRPPRLPRPRPRPSQCPRP | -0.165
RRIRGRPPRLPRPRPRPSQEPRP | 0.172
RRIRGRPPRLPRPRPRPSQMPRP | 0.0878
RRIRGRPPRLPRPRPRPSQSPRP | 0.0755
RRIRGRPPRLPRPRPRPSSAPRP | 0.592
RRIRGRPPRLPRPRPRPSSNPRP | 0.369
RRIRGRPPRLPRPRPRPSTRPRP | 0.114
RRIRGRPPRLPRPRPRPSVCPRP | 0.159
RRIRGRPPRLPRPRPRPSWIPRP | -0.0436
RRIRGRPPRLPRPRPRPSYWPRP | 0.119
RRIRGRPPRLPRPRPRPTAPPRP | 0.71
RRIRGRPPRLPRPRPRPTAVPRP | 2.41

Sequence | shrunken log2 fold change
RRIRGRPPRLPRPRPRPTDYPRP | -0.00915
RRIRGRPPRLPRPRPRPTGCPRP | 0.562
RRIRGRPPRLPRPRPRPTGPPRP | 0.692
RRIRGRPPRLPRPRPRPTHHPRP | 0.413
RRIRGRPPRLPRPRPRPTIIPRP | -0.026
RRIRGRPPRLPRPRPRPTKSPRP | 0.583
RRIRGRPPRLPRPRPRPTKVPRP | 0.414
RRIRGRPPRLPRPRPRPTMFPRP | 0.521
RRIRGRPPRLPRPRPRPTMGPRP | 0.875
RRIRGRPPRLPRPRPRPTNTPRP | 0.676
RRIRGRPPRLPRPRPRPTPIPRP | 0.79
RRIRGRPPRLPRPRPRPTPYPRP | 0.324
RRIRGRPPRLPRPRPRPTQMPRP | 0.924
RRIRGRPPRLPRPRPRPTQNPRP | 0.972
RRIRGRPPRLPRPRPRPTQYPRP | 0.337
RRIRGRPPRLPRPRPRPTSAPRP | 0.855
RRIRGRPPRLPRPRPRPTTFPRP | 0.608
RRIRGRPPRLPRPRPRPTTLPRP | 0.507
RRIRGRPPRLPRPRPRPTTNPRP | 0.878
RRIRGRPPRLPRPRPRPTVIPRP | 0.107
RRIRGRPPRLPRPRPRPTVPPRP | 0.433
RRIRGRPPRLPRPRPRPTWFPRP | 0.281
RRIRGRPPRLPRPRPRPTWKPRP | 0.847
RRIRGRPPRLPRPRPRPTYDPRP | 0.361
RRIRGRPPRLPRPRPRPTYLPRP | 0.132

Sequence | shrunken log2 fold change
RRIRGRPPRLPRPRPRPVAVPRP | 0.912
RRIRGRPPRLPRPRPRPVCRPRP | 0.802
RRIRGRPPRLPRPRPRPVDNPRP | 0.408
RRIRGRPPRLPRPRPRPVDSPRP | 0.0597
RRIRGRPPRLPRPRPRPVDWPRP | 1.03
RRIRGRPPRLPRPRPRPVETPRP | 0.689
RRIRGRPPRLPRPRPRPVGFPRP | 0.984
RRIRGRPPRLPRPRPRPVHYPRP | 0.109
RRIRGRPPRLPRPRPRPVINPRP | 0.199
RRIRGRPPRLPRPRPRPVKKPRP | 0.949
RRIRGRPPRLPRPRPRPVLLPRP | 0.122
RRIRGRPPRLPRPRPRPVLSPRP | 0.238
RRIRGRPPRLPRPRPRPVMFPRP | 0.451
RRIRGRPPRLPRPRPRPVNSPRP | 0.0202
RRIRGRPPRLPRPRPRPVQRPRP | 0.739
RRIRGRPPRLPRPRPRPVRIPRP | 0.536
RRIRGRPPRLPRPRPRPVRLPRP | 0.525
RRIRGRPPRLPRPRPRPVRWPRP | 0.965
RRIRGRPPRLPRPRPRPVSMPRP | 0.401
RRIRGRPPRLPRPRPRPVTEPRP | 0.706
RRIRGRPPRLPRPRPRPVTNPRP | 0.735
RRIRGRPPRLPRPRPRPVTPPRP | 1.24
RRIRGRPPRLPRPRPRPVTQPRP | 0.445
RRIRGRPPRLPRPRPRPVTTPRP | 1.21
RRIRGRPPRLPRPRPRPVVFPRP | 0.56

Sequence | shrunken log2 fold change
RRIRGRPPRLPRPRPRPVVYPRP | 0.268
RRIRGRPPRLPRPRPRPVWFPRP | 0.239
RRIRGRPPRLPRPRPRPVWLPRP | 0.649
RRIRGRPPRLPRPRPRPVYIPRP | -0.194
RRIRGRPPRLPRPRPRPVYMPRP | 0.361
RRIRGRPPRLPRPRPRPVYQPRP | 0.0322
RRIRGRPPRLPRPRPRPWAGPRP | 0.188
RRIRGRPPRLPRPRPRPWATPRP | 0.959
RRIRGRPPRLPRPRPRPWAYPRP | -0.151
RRIRGRPPRLPRPRPRPWCHPRP | -0.0582
RRIRGRPPRLPRPRPRPWDMPRP | -0.08
RRIRGRPPRLPRPRPRPWFSPRP | -0.246
RRIRGRPPRLPRPRPRPWHGPRP | -0.163
RRIRGRPPRLPRPRPRPWKHPRP | -0.161
RRIRGRPPRLPRPRPRPWLPPRP | -0.0942
RRIRGRPPRLPRPRPRPWMKPRP | 0.0546
RRIRGRPPRLPRPRPRPWNDPRP | -0.222
RRIRGRPPRLPRPRPRPWNWPRP | 0.232
RRIRGRPPRLPRPRPRPWQQPRP | 0.0543
RRIRGRPPRLPRPRPRPWRYPRP | 0.122
RRIRGRPPRLPRPRPRPWSCPRP | 0.202
RRIRGRPPRLPRPRPRPWSHPRP | -0.155
RRIRGRPPRLPRPRPRPWSRPRP | -0.188
RRIRGRPPRLPRPRPRPWSYPRP | -0.157
RRIRGRPPRLPRPRPRPWVFPRP | 0.758
